The results in this text go back to patent US20120251453A1 (SANFORD BURNHAM MEDICAL RESEARCH INSTITUTE, published 2012).

No end group written: not given here. Alexa Fluor 488 C5‑maleimide = fluorescent dye linked to the Cys thiol through maleimide

Test [1] has as its target T1, annexin 1 (Anxa1) expressed on mouse endothelial cells (F-2 cells; tumor vasculature in mice) (mouse, UniProt P10107 2-346).
T1 construct: whole, on cells; Endogenous protein on cells; also called Anxa1 expressed on the endothelial cell surface
T1 sequence (looked up): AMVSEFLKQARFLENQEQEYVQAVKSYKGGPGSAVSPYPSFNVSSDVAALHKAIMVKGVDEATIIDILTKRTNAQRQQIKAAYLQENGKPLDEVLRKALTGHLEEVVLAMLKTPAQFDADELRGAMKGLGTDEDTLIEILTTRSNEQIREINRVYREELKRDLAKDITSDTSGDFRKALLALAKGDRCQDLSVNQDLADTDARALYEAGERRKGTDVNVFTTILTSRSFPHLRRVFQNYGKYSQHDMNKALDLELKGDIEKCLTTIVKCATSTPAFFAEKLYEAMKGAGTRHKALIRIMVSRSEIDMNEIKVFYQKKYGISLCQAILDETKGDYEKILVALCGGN
Nature of the test: fluorescence microscopy of mouse endothelial F-2 cells cultured in vitro. How it is done:
F-2 cells cultured on a filter of trans well insert was added with IF7C(RR)-conjugated FITC-poly-L-lysine to allow the reagent being bound to apical cell surface of F-2 cells. After washing the monolayer with medium, insert was placed in wells containing medium at 37° C. or at 4° C. Fluorescence moved to the lower chamber of insert was measured. C. Targeting and penetration of intravenously injected IF7C(RR)-conjugated FITC-poly-L-lysine in the B16 tumor in vivo in the mouse. Tissue section was immunostained for endothelial cell marker CD31.
Since IF7-SN38 is highly hydrophobic, there was a concern regarding a possibility that IF7-SN38 becomes insoluble after intravenous injection. Such may reduce the activity of IF7-SN38 in vivo. To increase the solubility of IF7-SN38 in aqueous environment, two arginine residues were added to IF7 after the cysteine residue. Thus IFLLWQR-C-RR (SEQ ID NO:17) or IF7C(RR) was synthesized. When IF7C(RR) was conjugated to FITC-poly-L-lysine, IF7C(RR)-conjugated FITC-poly-L-lysine bound to the surface of Anxa1-expressing mouse endothelial F-2 cells (FIG. 12A). […] When IF7C(RR)-conjugated FITC-poly-L-lysine was added to F-2 cells grown on a filter of the insert for trans well chamber, washed and then incubated in a medium at 37° C. or at 4° C., fluorescence migrated to the lower chamber from cells incubated at 37° C. but not at 4° C. […]

Test [2] addresses recombinant Anxa1-His6 protein. The test is described as follows: isothermal titration calorimetry, peptide injected into Anxa1-His protein, 23° C.; average over two Anxa1-His preparations. On the technique in general: In ITC the heat of successive injections is recorded.
Test [3] concerns the target T1, annexin 1 (Anxa1) expressed on mouse …. The test is described as follows: intravital fluorescence of LLC tumors in a dorsal skinfold chamber after intravenous injection; signal intensity over time, with or without pre-injected rabbit IgG or anti-Anxa1 antibody. How it is done: (A) Lewis lung carcinoma (LLC) tumors were allowed to vascularize for 3 days in dorsal skinfold chamber window in nude mice. Mice were injected with 100 μl of 50 μM IF7-A488 (row a) or RQ7-A488 (row b) in 5% glucose in water. IF7-A488 was also injected to tumor-bearing mice pre-injected with rabbit IgG (row c) or with rabbit anti-Anxa1 antibody (row d). Fluorescence signals were monitored under a fluorescence microscope up to 40 min post-injection. From left: bright field before injection, and fluorescence at 0, 5, 20 min after injection. Far right, the boundary of tumor and stroma at 20 min (Scale bar=500 μm). (B) Quantitative analysis of fluorescence during the course of the analysis shown in A. The line with the highest signal at 10 minutes represents IF&-A488. The line with the second highest signal at 10 minutes represents the control IgG. […] Intensity of fluorescence was determined by Image J program. […] (C) Fluorescence micrographs of tumor sections 20 min after injection with IF7-A488 and RQ7-A488. […] IF7-A488 signals (upper row) were detected on endothelial cells of tumor vasculature (Scale bar=50 μm), while no RQ7-A488 signal was detected (lower row). […] Arrows indicate fluorescence. (D) Fluorescence remained in circulation in mice with or without subcutaneous B16 tumors. IF7-A488 was injected intravenously through the tail vein, and fluorescence remaining in circulation was measured. […]

The target is the same in test [4]. The test is described as follows: in vivo phage targeting in B16 tumor-bearing mice pre-injected with control rabbit IgG or anti-Anxa1 antibody; colonies recovered from tissue homogenates. The source says: FIGS. 1A-1H show the essential role of annexin 1 (Anxa1) in tumor growth and identification of a peptide sequence with tumor vasculature targeting activity in vivo. A and B. Growth of B16 tumors subcutaneously injected into Anxa1(+/−) and Anxa1(−/−) mutant mice. C. Histology of B16 tumors produced in Anxa1(+/−) and Anxa1(−/−) mice. Each scale bar represents 2.00 mm. D. Immunohistochemistry of B16 tumors for CD31 showing endothelial cells and vasculature. Each scale bar represents 200 μm. E. In vivo phage targeting in B16 tumor-bearing mice. Numbers of transformed colonies recovered from the tumor or lung were determined. […] F. In vivo tumor and organ targeting activity of IFLLWQR (SEQ ID NO:2) displaying phage. Phage was injected into B16 tumor bearing mice pre-injected with anti-Anxa1 antibody or with control rabbit IgG. G. In vitro plate assay for binding of IF7-A488 (upper line) and control RQ7-A488C (lower line) to recombinant […] protein produced by bacteria. H. Effect of IF7 (upper line) and control RQ7 (lower line) on binding of FITC-labeled polyacrylamide-LeA oligosaccharide to Anxa1-His₆ protein.
Mouse melanoma B16F1 cells (2×10⁵ cells/100 μl PBS) were injected subcutaneously into the dorsal flank of C57BL/6 female mice (8-10 weeks old). […] Colonies appearing on an agar plate after culturing at 37° C. for 20 hours were counted.

For test [5] the target is unchanged. Nature of the test: intravital fluorescence of LLC tumors in a dorsal skinfold chamber after intravenous injection; signal intensity over time. As for the experimental part:
The line with the lowest signal at 10 minutes represents RQ7-A488. Intensity of fluorescence was determined by Image J program. Error bars represent SD (n=3). Asterisks show statistical significance or p<0.0001, t test. (C) Fluorescence micrographs of tumor sections 20 min after injection with IF7-A488 and RQ7-A488. From left: IF7-A488, DAPI, merged, and bright field. IF7-A488 signals (upper row) were detected on endothelial cells of tumor vasculature (Scale bar=50 μm), while no RQ7-A488 signal was detected (lower row). Experiments were repeated 3 times, and representative results are shown. Arrows indicate fluorescence. (D) Fluorescence remained in circulation in mice with or without subcutaneous B16 tumors. IF7-A488 was injected intravenously through the tail vein, and fluorescence remaining in circulation was measured. […]
A Lewis lung carcinoma (LLC) tumor was produced in a donor nude mouse by subcutaneous injection, and small piece of tumor (less than 1 mm³) was transplanted to a dorsal skinfold chamber in a recipient nude mouse (8-10 weeks female Balb/c nude) as described (Lehr et al., Am J Pathol 1993; 143:1055-62; Oh et al., Nat Biotechnol 2007; 25:327-37). […] Signal intensity in the tumor from 0 min to 40 min was measured by Image J (NIH, Maryland). After 10 min, irradiation of specimens by a UV lamp was limited only to times when photos were taken to avoid fluorescence bleaching. […]

B1: IF7C(RR)-conjugated FITC-poly-L-lysine (peptide, not shown: large carriers)
peptide: IFLLWQRCRR
modifications: also: conjugated to FITC-poly-L-lysine, site and chemistry not given here
notes: Polymer conjugate; also called IF7C(RR)-conjugated FITC-polylysine; IF7C(RR)-conjugated FITC-poly-lysine
On to B1, for which the binding result in test [1] is “binds”.
By Kd is commonly meant the constant that tells how readily two partners part at equilibrium. In the case of IFLLWQRKKKC [IF7K3C peptide (…)], the equilibrium dissociation constant (Kd) in test [2] was found to be 11 µM.
Take IFLLWQRC(Alexa Fluor 488 C5‑maleimide) (Synthetic peptide (GenScript)) [IF7-A488 (chemically synthesized IF7 conjugated with fluorescent Alexa 488)]: in test [3], the binding result is given as “binds”.
IFLLWQR (peptide, not shown: large carriers, also called IF7 phage; clone #2) [IFLLWQR (SEQ ID NO:2) displaying phage]: the binding result in test [4] is recorded as “binds”.
Turning to RQWLLFI (also: Alexa 488 conjugated, site of attachment not given here, also called RQ7-A488C; control RQ7-A488) [RQ7-A488 (Alexa 488 conjugated with RQWLLFI or reverse IF7)], the binding result in test [5] is “no binding”.
